Paper PMC9412290

Biological target: CD46, stably expressed on CHO cells (CHO-CD46) (human) (UniProt P15529)
UniProt P15529, sequence (P15529 35-392): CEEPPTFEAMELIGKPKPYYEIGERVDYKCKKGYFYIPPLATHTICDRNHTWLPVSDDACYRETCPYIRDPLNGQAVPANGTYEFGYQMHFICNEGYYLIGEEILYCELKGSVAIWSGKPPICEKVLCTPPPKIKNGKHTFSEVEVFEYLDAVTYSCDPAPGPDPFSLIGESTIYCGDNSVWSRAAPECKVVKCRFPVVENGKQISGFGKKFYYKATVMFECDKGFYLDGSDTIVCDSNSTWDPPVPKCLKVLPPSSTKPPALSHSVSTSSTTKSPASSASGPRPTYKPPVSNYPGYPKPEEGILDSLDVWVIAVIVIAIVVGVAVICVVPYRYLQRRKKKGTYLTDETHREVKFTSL

B1: human adenovirus type 3 (Ad3) fiber, on particles of the Ad3 vector (natural protein)
chain: MAKRARLSTSFNPVYPYEDESSSQHPFINPGFISPDGFTQSPNGVLSLKCVNPLTTASGSLQLKVGSGLTVDTTDGSLEENIKVNTPLTKSNHSINLPIGNGLQIEQNKLCSKLGNGLTFDSSNSIALKNNTLWTGPKPEANCIIEYGKQNPDSKLTLILVKNGGIVNGYVTLMGASDYVNTLFKNKNVSINVELYFDATGHILPDSSSLKTDLELKYKQTADFSARGFMPSTTAYPFVLPNAGTHNENYIFGQCYYKASDGALFPLEVTVMLNKRLPDSRTSYVMTFLWSLNAGLAPETTQATLITSPFTFSYIREDD
percent GFP-positive cells by flow cytometry after infection of CHO-CD46 cells with 2000 vp/c of the Ad3 vector (transduction; CHO-K1 without receptor is not transduced): 13%

B2: human adenovirus type 3 (Ad3) fiber with the JO4 mutation (V239D), on particles of the Ad3-JO4 vector (natural protein)
chain: MAKRARLSTSFNPVYPYEDESSSQHPFINPGFISPDGFTQSPNGVLSLKCVNPLTTASGSLQLKVGSGLTVDTTDGSLEENIKVNTPLTKSNHSINLPIGNGLQIEQNKLCSKLGNGLTFDSSNSIALKNNTLWTGPKPEANCIIEYGKQNPDSKLTLILVKNGGIVNGYVTLMGASDYVNTLFKNKNVSINVELYFDATGHILPDSSSLKTDLELKYKQTADFSARGFMPSTTAYPFDLPNAGTHNENYIFGQCYYKASDGALFPLEVTVMLNKRLPDSRTSYVMTFLWSLNAGLAPETTQATLITSPFTFSYIREDD
percent GFP-positive cells by flow cytometry after infection of CHO-CD46 cells with 2000 vp/c of the Ad3-JO4 vector (transduction; CHO-K1 without receptor is not transduced): < 5%
